Test results reported in patent publication US20070032439, “Tarp promoter and uses thereof” (published 2007).

B1: wild-type ARE[-186] TARP promoter oligo (dsDNA)
DNA 1: GCAAGGTGAGGTCAGTTCTTAAA
DNA 2: TTTAAGAACTGACCTCACCTTGC
B2: mutated ARE[-186] oligo (dsDNA)
DNA 1: GCAAGGTGTGGTCAACTATTAAA
DNA 2: TTTAATAGTTGACCACACCTTGC

Assays:
[1] = biological target: T1, Androgen receptor (AR), full-length (Homo sapiens, UniProt P10275 P10275:1-920); assay: EMSA; 10 nM R1881, 30 mM KCl, 2 mM MgCl2, pH 7.5, poly(dI-dC); abolished by 100-fold unlabeled wild-type competitor; details: tags: none stated; cDNA from pSVAR0 in pBluescript II SK+, T7/wheat germ extract (Promega); chain copies: 2; label: 32P 5' end
Description: (§1) Double-stranded oligonucleotides constituting either the wild-type ARE or a mutated version thereof at −186, relative to the TARP transcription initiation site, were 5′end labeled with […] using T4 polynucleotide kinase (Amersham Bioscience, Piscataway, N.J.). The wild-type oligonucleotide sequence was […] and includes the ARE[−186] sequence of the TARP promoter. The corresponding oligonucleotide sequence with the mutated version of the ARE[−186] was […]. Full-length human AR cDNA was subcloned from PSVAR0 (Brinkmann et al., J. Steroid Biochem., 34: 307-310, 1989) to pBluescript II SK+ (Stratagene). In vitro-translated human AR was produced by transcription-coupled translation by using T7 RNA polymerase and wheat germ extract (Promega). Translated AR was incubated with either wild-type ARE[−186] probe or mutated ARE[−186] probe in a buffer containing 20 mM HEPES (pH 7.5), 30 mM KCl, 2 mM MgCl₂, 1 mM EDTA, 1 mM dithioerythritol, 1 mM phenylmethylsulfonyl fluoride, 10 nM R1881, 15% glycerol, 1 μg poly(dI-dC)poly(dI-dC) and 1 μg BSA. Samples were resolved by electrophoresis on 5% TBE/polyacrylamide gels. The gels were dried and subjected to autoradiography.

[2] = biological target: T1, Androgen receptor (AR), full-length; assay: EMSA; 10 nM R1881, 30 mM KCl, 2 mM MgCl2, pH 7.5, poly(dI-dC); details: tags: none stated; cDNA from pSVAR0 in pBluescript II SK+, T7/wheat germ extract (Promega); chain copies: 2; label: 32P 5' end
Description: as §1

T1 sequence (P10275 whole entry, one chain of several): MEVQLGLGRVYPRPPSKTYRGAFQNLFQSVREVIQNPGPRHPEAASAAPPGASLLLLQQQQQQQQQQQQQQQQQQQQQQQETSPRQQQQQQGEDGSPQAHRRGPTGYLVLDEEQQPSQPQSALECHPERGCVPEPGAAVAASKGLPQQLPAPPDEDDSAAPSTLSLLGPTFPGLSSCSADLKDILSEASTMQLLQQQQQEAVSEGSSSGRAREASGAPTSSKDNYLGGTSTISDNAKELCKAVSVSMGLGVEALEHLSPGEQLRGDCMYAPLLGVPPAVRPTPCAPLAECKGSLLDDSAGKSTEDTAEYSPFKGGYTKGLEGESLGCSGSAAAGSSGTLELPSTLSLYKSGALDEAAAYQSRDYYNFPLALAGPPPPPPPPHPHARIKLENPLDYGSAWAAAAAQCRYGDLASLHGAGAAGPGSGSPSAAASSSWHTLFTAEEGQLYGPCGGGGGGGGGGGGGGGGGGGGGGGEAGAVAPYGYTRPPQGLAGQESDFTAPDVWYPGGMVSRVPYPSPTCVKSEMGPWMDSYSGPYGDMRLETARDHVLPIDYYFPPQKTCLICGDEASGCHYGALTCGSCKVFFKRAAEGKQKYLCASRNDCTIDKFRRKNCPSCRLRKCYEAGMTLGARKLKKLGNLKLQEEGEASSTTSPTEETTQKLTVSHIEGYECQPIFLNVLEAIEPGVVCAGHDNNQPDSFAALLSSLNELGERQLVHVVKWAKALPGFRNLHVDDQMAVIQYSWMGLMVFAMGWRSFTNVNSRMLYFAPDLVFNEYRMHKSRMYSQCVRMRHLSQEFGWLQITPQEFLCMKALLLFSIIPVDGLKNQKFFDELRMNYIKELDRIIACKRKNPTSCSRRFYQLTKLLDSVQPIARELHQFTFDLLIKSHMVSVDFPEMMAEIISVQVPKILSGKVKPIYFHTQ

| Binder | binding result [1] | binding result [2] |
| --- | --- | --- |
| B1 | binds |  |
| B2 |  | no binding |
